We go through one molecule from US20030144205A1.

The experiment addresses T1, mouse RFPL4, full-length (amino acid residues 1-287) (mouse) (UniProt Q8VH31).
T1 sequence (looked up): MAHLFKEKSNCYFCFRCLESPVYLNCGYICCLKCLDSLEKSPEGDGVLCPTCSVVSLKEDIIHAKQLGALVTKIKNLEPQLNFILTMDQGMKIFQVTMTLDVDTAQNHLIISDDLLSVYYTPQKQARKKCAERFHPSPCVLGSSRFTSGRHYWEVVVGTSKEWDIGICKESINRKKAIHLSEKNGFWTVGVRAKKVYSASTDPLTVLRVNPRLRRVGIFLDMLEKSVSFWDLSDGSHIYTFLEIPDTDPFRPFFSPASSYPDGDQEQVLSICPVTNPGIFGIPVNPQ
In words: yeast two-hybrid mating screen of the ovary cDNA library with pGBKT7-RFPL4 as bait.

B1: Phosphoserine/threonine/tyrosine interaction protein (STYX) (protein, mouse, UniProt Q60969 1-223, looked up)
chain: MEDVKLEFPSLPQCKDDAEEWTYPMRREMQEVLPGLFLGPYSSAMKSKLPILQKHGITHIICIRQNIEANFIKPNFQQLFRYLVLDIADNPVENIIRFFPMTKEFIDGSLQNGGKVLVHGNAGISRSAAFVIAYIMETFGMKYRDAFAYVQERRFCINPNAGFVHQLQEYEAIYLAKLTIQMMSPLQIERSLAVHSGTTGSVKRTHEEDDDFGNMQVATAQNG
Molecule B1 came in with a # of clones of 1 clones.
